One assay concerns the target T1, recombinant human TIGIT (human, UniProt Q495A1 22-141, limits assumed).
T1 construct: recombinant human TIGIT used in Carterra SPR; also called hTIGIT
T1 sequence (looked up): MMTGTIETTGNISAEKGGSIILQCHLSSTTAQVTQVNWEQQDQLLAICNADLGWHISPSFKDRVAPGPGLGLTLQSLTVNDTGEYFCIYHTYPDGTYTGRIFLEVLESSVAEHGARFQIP
The assay is described as follows: SPR Carterra, average. On the procedure:
Binding affinities of VHH-Fc proteins to recombinant human TIGIT were measured by SPR using a Carterra instrument (Table 10A). […] Average values reported from measurements from 1-2 samples.

In the next assay the target is T2, human TIGIT-Fc (human, UniProt Q495A1 22-141, limits assumed).
T2 construct: not shown: Fc; not described
T2 sequence (looked up): T1 sequence (looked up)
The assay is described as follows: CD155 competition ELISA, single point. Note: test concentration or dose not given here. On the procedure:
TIGIT/CD155 inhibition of VHH-Fcs were assessed using an ELISA assay (Table 10B). Briefly, human TIGIT-Fc was coated on a plate & then incubated with VHH-Fcs and human CD155-biotin. Bound CD155-biotin was detected using a streptavidin-HRP conjugate visualized with TMB. Strong inhibitors from the single point screen were titrated to determine EC50 (Table 10C).
A general note: An ELISA detects its analyte on a solid surface through an enzyme-linked reagent.

Changes are numbered by the printed parent chain.

B1: TIGIT-SC192 (Fc fusion)
VHH: EVQLVESGGGLVQPGGSLRLSCAASGFTFSVYWMGWFRQAPGKEREFVAAISRSGTLKEYADSVKGRFTISADNSKNTAYLQMNSLKPEDTAVYYCARGSGWPKIHFDYWGQGTLVTVSS
notes: VHH-Fc fusion in assay
What is called Kd is the equilibrium constant for the complex coming apart. A word on the koff: it is the rate constant with which the complex falls apart. Broadly, the kon is the rate constant with which the complex forms. As to B1, in the assay with recombinant human TIGIT, the Kd amounted to 131 nM, the koff is 0.0715 s⁻¹ and the kon was found to be 545000 M⁻¹ s⁻¹.

B2: TIGIT-SC193 (Fc fusion)
VHH: B1 VHH with V31D, E59A
notes: VHH-Fc fusion in assay
Turning to B2, in the assay with recombinant human TIGIT, the Kd was determined as 841 nM, the koff worked out at 0.178 s⁻¹ and the kon was determined as 211000 M⁻¹ s⁻¹.

B3: TIGIT-SC105 (Fc fusion)
VHH: EVQLVESGGGLVQPGGSLRLSCAASGFAFSRYGMGWFRQAPGKERELVATIGWSGSSTFYADSVKGRFTISADNSKNTAYLQMNSLKPEDTAVYYCARDGGPYYYGLDVWGQGTLVTVSS
notes: VHH-Fc fusion in assay
For B3, in the assay with recombinant human TIGIT, the Kd stood at 189 nM, the koff amounted to 0.0116 s⁻¹ and the kon was determined as 61600 M⁻¹ s⁻¹.

B4: TIGIT-SC45 (Fc fusion)
VHH: EVQLVESGGGLVQPGGSLRLSCAASGGTFNAMGWFRQAPGKEREWVASVLRGGYTWYADSVKGRFTISADNSKNTAYLQMNSLKPEDTAVYYCAKDGGSSGTYQNWWGQGTLVTVSS
notes: VHH-Fc fusion in assay
As for B4, in the assay with recombinant human TIGIT, the Kd worked out at 103 nM, the koff amounted to 0.00929 s⁻¹ and the kon amounted to 89900 M⁻¹ s⁻¹.

B5: TIGIT-SC30 (Fc fusion)
VHH: EVQLVESGGGLVQPGGSLRLSCAASGRSFSSDWIGWFRQAPGKERELVAAIDWSGGSALYADSVKGRFTISADNSKNTAYLQMNSLKPEDTAVYYCARVNWNNVGWFDPWGQGTLVTVSS
notes: VHH-Fc fusion in assay
As to B5, in the assay with recombinant human TIGIT, the Kd was determined as 67.3 nM, the dissociation rate constant (koff) came out at 0.0155 s⁻¹ and the kon turned out to be 231000 M⁻¹ s⁻¹.

B6: TIGIT-SC141 (Fc fusion)
VHH: EVQLVESGGGLVQPGGSLRLSCAASGNAFSSSVMGWFRQAPGKEREFVAGIWRSGSLKAYADSVKGRFTISADNSKNTAYLQMNSLRPEDTAVYYCARAYVGMTTVTFDHWGQGTLVTVSS
notes: VHH-Fc fusion in assay
With B6, in the assay with recombinant human TIGIT, the Kd turned out to be 903 nM, the koff is 0.151 s⁻¹ and the kon came to 167000 M⁻¹ s⁻¹.

B7: TIGIT-SC94 (Fc fusion)
VHH: EVQLVESGGGLVQPGGSLRLSCAASGSSFSAYAMGWFRQAPGKEREFVSLINWSSGKTIYADSVKGRFTISADNSKNTAYLQMNSLKPEDTAVYYCARVRIFNHVHRPSYYFDYWGQGTLVTVSS
notes: VHH-Fc fusion in assay
Consider B7, for which, in the assay with recombinant human TIGIT, the Kd was 549 nM, the koff turned out to be 0.027 s⁻¹ and the on-rate (kon) was determined as 49200 M⁻¹ s⁻¹.

B8: TIGIT-SC186 (Fc fusion)
VHH: EVQLVESGGGLVQPGGSLRLSCAASGNTFSGGFMGWFRQAPGKEREYVASVLRGGYTWYADSVKGRFTISADNSKNTTYLQMNSLKPEDTAVYYCTTDRGYNWNYDWGQGTLVTVSS
notes: VHH-Fc fusion in assay
With B8, in the assay with recombinant human TIGIT, the Kd was 170 nM, the koff came out at 0.005 s⁻¹ and the kon worked out at 98700 M⁻¹ s⁻¹.

B9: TIGIT-SC137 (Fc fusion)
VHH: EVQLVESGGGLVQPGGSLRLSCAASGFTLENNMMGWFRQAPGKEREFVAAISRSGTLKAYADSVKGRFTISADNSKNTAYLQMNSLKPEDTAVYYCSLVSGPRWYWGQGTLVTVSS
notes: VHH-Fc fusion in assay
Take B9: in the assay with recombinant human TIGIT, the Kd turned out to be 102 nM, the koff was 0.00688 s⁻¹ and the kon was found to be 67500 M⁻¹ s⁻¹.

B10: TIGIT-SC118 (Fc fusion)
VHH: EVQLVESGGGLVQPGGSLRLSCAASGRTFSFMGWFRQAPGKEREWVASVLRGGYTWYADSVKGRFTISADNSKNTAYLQMNSLKPEDTAVYYCAKDGGWFDPWGQGTLVTVSS
notes: VHH-Fc fusion in assay
B10: in the assay with recombinant human TIGIT, the Kd was determined as 114 nM, the dissociation rate constant (koff) was 0.00252 s⁻¹ and the kon was 29700 M⁻¹ s⁻¹.

B11: TIGIT-SC140 (Fc fusion)
VHH: EVQLVESGGGLVQPGGSLRLSCAASGNTFSGGFTFDRSWMGWFRQAPGKEREWVASVLRGGYTWYADSVKGRFTISADNSKNTAYLQMNSLKPEDTAVYYCAGDRYYDFWSGPNSGDYWGQGTLVTVSS
notes: VHH-Fc fusion in assay
In the case of B11, in the assay with recombinant human TIGIT, the Kd came to 68.7 nM, the off-rate constant (koff) was 0.00474 s⁻¹ and the kon turned out to be 68900 M⁻¹ s⁻¹.

B12: TIGIT-SC27 (Fc fusion)
VHH: EVQLVESGGGLVQPGGSLRLSCAASGLTFSNYVMGWFRQAPGKEREVVAGILSDGRELYADSVKGRFTISADNSKNTAYLQMNSLKPEDTAVYYCARDVFGEGHWGQGTLVTVSS
notes: VHH-Fc fusion in assay
For B12, in the assay with recombinant human TIGIT, the Kd came out at 80.6 nM, the koff worked out at 0.00624 s⁻¹ and the kon came to 80900 M⁻¹ s⁻¹.

B13: TIGIT-SC146 (Fc fusion)
VHH: EVQLVESGGGLVQPGGGLRLSCAASGFTLENNMMGWFRQAPGKEREFVAAISASGTLRAYADSVKGRFTISADNSKNTAYLQMNSLKPEDTAVYYCAKGGQAGPMAFYFDYWGQGTLVTVSS
notes: VHH-Fc fusion in assay
Take B13: in the assay with recombinant human TIGIT, the Kd stood at 1060 nM, the koff turned out to be 0.24 s⁻¹ and the kon was 226000 M⁻¹ s⁻¹.

B14: TIGIT-SC109 (Fc fusion)
VHH: EVQLVESGGGLVQPGGSLRLSCAASGRDISSYIMGWFRQAPGKERELVAIIDTNGDDTLYADSAKGRFTISADNSKNTAYLQMNSLKPEDTAVYYCANGGRVWWAFDYWGQGTLVTVSS
notes: VHH-Fc fusion in assay
For the molecule B14, in the assay with recombinant human TIGIT, the Kd stood at 121 nM, the koff was determined as 0.00468 s⁻¹ and the kon is 38700 M⁻¹ s⁻¹.

B15: TIGIT-SC205 (Fc fusion)
VHH: EVQLVESGGGLVQPGGSLRLSCAASGFTFDRSWMGWFRQAPGKEREFVAAIWRSGTLKAYADSVKGRFTISADNGKNTAYLQMNSLKPEDTAVYYCAEGGTTAWGWFVPWGQGTLVTVSS
notes: VHH-Fc fusion in assay
With B15, in the assay with recombinant human TIGIT, the Kd was found to be 119 nM, the koff was determined as 0.0854 s⁻¹ and the kon turned out to be 718000 M⁻¹ s⁻¹.

B16: TIGIT-SC143 (Fc fusion)
VHH: EVQLVESGGGLVQPGGSLRLSCAASGFTLGYYVMGWFRQAPGKEREFVAAISASGTLRAYADSVEGRFTISADNSKNTAYLQMNSLKPEDTAVYYCARAELGYSYGSVDGYWGQGTLVTVSS
notes: VHH-Fc fusion in assay
As to B16, in the assay with recombinant human TIGIT, the Kd was determined as 474 nM, the koff was found to be 0.239 s⁻¹ and the kon came to 504000 M⁻¹ s⁻¹.

B17: TIGIT-SC181 (Fc fusion)
VHH: EVQLVESGGGLVQPGGSLRLSCAASGFTLSSNWMGWFRQAPGKEREFVASVLRGGYTWYADSVKGRFTISADNSKNTAYLQMNSLKPEDTAVYYCARDAYYYGLWGQGTLVTVSS
notes: VHH-Fc fusion in assay
For B17, in the assay with recombinant human TIGIT, the Kd was 393 nM, the koff stood at 0.168 s⁻¹ and the kon stood at 428000 M⁻¹ s⁻¹.

B18: TIGIT-SC148 (Fc fusion)
VHH: EVQLVESGGGLVQPGGSLRLSCAASGDIGSINAMGWFRQAPGKEREFVAGIWRSGNLKAYADSVKGRFTISADNSKNTAYLQMSSLKPEDTAVYYCARGNIVVVPAAFVIWFDPWGQGTLVTVSS
notes: VHH-Fc fusion in assay
On to B18, for which, in the assay with recombinant human TIGIT, the Kd worked out at 1320 nM, the koff was 0.16 s⁻¹ and the kon came out at 121000 M⁻¹ s⁻¹.

B19: TIGIT-SC202 (Fc fusion)
VHH: EVQLVESGGGLVQPGGSLRLSCAASGFTFSPSWMGWFRQAPGKEREWVASVLRGGYTWYADSVKGRFTISADNSKNTAYLQMNSLKPEDTAVYYCTTDGGYSGIVGFAWGQGTLVTVSS
notes: VHH-Fc fusion in assay
On to B19, for which, in the assay with recombinant human TIGIT, the Kd turned out to be 625 nM, the koff turned out to be 0.0934 s⁻¹ and the kon came out at 93800 M⁻¹ s⁻¹.

B20: TIGIT-SC152 (Fc fusion)
VHH: EVQLVESGGGLVQPGGNLRLSCAASGSTFSKHHAMGWFRQAPGKEREFVAGIIRSGTLKAYADSVKGRFTISADNSKNTAYLQMNSLKPEDTAVYYCTRGRAARHNLWYFDLWGQGTLVTVSS
notes: VHH-Fc fusion in assay
Regarding B20, in the assay with recombinant human TIGIT, the Kd was 1470 nM, the koff amounted to 0.155 s⁻¹ and the kon came to 106000 M⁻¹ s⁻¹.

B21: TIGIT-SC174 (Fc fusion)
VHH: EVQLVESGGGLVQPGGSLRLSCAASGFLFDSYAMGWFRQAPGKEREFVAAISWSGGSTYYADSVKGRFTISADNSKNTAYLQMNSLKPEDTAVYYCTTDALRFLEWPWWGQGTLVTVSS
notes: VHH-Fc fusion in assay
As for B21, in the assay with recombinant human TIGIT, the Kd turned out to be 124 nM, the koff was found to be 0.0335 s⁻¹ and the association rate constant (kon) was determined as 444000 M⁻¹ s⁻¹.

B22: TIGIT-SC96 (Fc fusion)
VHH: EVQLVESGGGLVQPGGSLRLSCAASGMTTIGPMGWFRQAPGKEREFVAAINWSGSSTVYADSVKGRFTISADNSKNTAYLQMNSLKPEDTAVYYCVTYSAYDFRNAWGQGTLVTVSS
notes: VHH-Fc fusion in assay
For the molecule B22, in the assay with recombinant human TIGIT, the Kd was found to be 113 nM, the koff was 0.0176 s⁻¹ and the association rate constant (kon) came out at 166000 M⁻¹ s⁻¹.

B23: TIGIT-SC177 (Fc fusion)
VHH: EVQLVESGGGLVQPGGSLRLSCAASGFTFSPSWMGWFRQAPGKEREWVASVLRGGYTWYADSVKGRFTISADNSKNTAYLQMNSLKPEDTAVYYCATDRGPAMVFNLWGQGTLVTVSS
notes: VHH-Fc fusion in assay
For B23, in the assay with recombinant human TIGIT, the Kd came to 340 nM, the koff is 0.00279 s⁻¹ and the kon stood at 48600 M⁻¹ s⁻¹.

B24: TIGIT-SC199 (Fc fusion)
VHH: EVQLVESGGGLVQPGGSLRLSCAASGFSSAQYAMGWFRQAPGKERELVASIDSEGRTNYADSVKGRFTISADNSKNTAYLQMNSLKPEDTAVYYCTRDGGFDPWGQGTLVTVSS
notes: VHH-Fc fusion in assay
As to B24, in the assay with recombinant human TIGIT, the Kd was 321 nM, the koff turned out to be 0.128 s⁻¹ and the kon is 399000 M⁻¹ s⁻¹.

B25: TIGIT-SC95 (Fc fusion)
VHH: EVQLVESGGGLVQPGGSLRLSCAASGPTFSTNVMGWFRQAPGKEREFVSSIHWGGSSTVYADSVKGRFTISADNSKNTAYLQMNSLKPEDTAVYYCVTYSAYDFRNAWGQGTLVTVSS
notes: VHH-Fc
B25: the “OD (450 nm)” value in the assay with human TIGIT-Fc came to 0.613 OD.

These data come from patent publication US20260184782A1 (TWIST BIOSCIENCE, published 2026).
